“Also recorded” adds a separate entry of the source. Where a SMILES comes first, the peptide text is derived from it.
What was measured:
[1] = biological target: T1, NK-3 receptor (Homo sapiens, UniProt P29371); settings: cited from earlier work
T1 sequence (P29371 1-465): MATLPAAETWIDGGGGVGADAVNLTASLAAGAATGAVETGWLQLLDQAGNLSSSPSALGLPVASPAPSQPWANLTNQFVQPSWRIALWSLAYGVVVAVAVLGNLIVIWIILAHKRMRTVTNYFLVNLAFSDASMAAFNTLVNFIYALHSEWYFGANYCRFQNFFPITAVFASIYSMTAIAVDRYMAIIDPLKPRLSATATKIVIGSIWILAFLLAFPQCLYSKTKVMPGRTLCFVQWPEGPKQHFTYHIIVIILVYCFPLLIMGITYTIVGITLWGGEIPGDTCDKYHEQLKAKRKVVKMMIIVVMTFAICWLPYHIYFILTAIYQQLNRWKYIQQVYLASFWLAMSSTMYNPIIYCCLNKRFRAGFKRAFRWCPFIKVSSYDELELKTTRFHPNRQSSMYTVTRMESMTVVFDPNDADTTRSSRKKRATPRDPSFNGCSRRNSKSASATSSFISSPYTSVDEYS

[2] = biological target: T1, NK-3 receptor; parameters: expressed in transfected cells; host or cells: HEK 293; settings: HEK 293-human NK3 receptor cells, mean ± SEM, read-out: Ca2+ Mobilization Human NK3 receptor; cited from earlier work
[3] = biological target: T2, Murine NK3 receptor (Mus musculus, UniProt P47937); settings: HEK 293-murine NK3 receptor cells; mean ± SEM; read-out: Ca2+ Mobilization Murine NK3 receptor, EC50; cited from earlier work
T2 construct: expressed in transfected cells; host or cells: HEK 293
T2 sequence (P47937 1-452): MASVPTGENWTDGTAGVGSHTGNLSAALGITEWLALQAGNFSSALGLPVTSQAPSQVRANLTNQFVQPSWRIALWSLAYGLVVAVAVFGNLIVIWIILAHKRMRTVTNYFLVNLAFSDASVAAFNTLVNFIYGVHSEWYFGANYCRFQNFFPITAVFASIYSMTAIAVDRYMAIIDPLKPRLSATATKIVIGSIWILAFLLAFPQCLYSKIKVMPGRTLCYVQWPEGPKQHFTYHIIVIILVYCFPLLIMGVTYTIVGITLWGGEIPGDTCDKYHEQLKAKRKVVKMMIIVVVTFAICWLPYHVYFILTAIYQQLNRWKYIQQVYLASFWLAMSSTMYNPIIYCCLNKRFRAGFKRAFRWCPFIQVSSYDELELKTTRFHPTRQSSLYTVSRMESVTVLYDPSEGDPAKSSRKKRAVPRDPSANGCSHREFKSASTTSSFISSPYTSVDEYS

[4] = biological target: T1, NK-3 receptor; parameters: expressed in transfected cells; host or cells: HEK 293; settings: read-out: Binding (Inhibition of [125I]-[MePhe7]neurokinin B) Human NK3 receptor, HEK 293-human NK3 receptor cells, mean ± SEM; cited from earlier work
[5] = tested on: left atrium of Langendorff-perfused rabbit heart; test: Left atrial effective refractory period in Langendorff-perfused rabbit hearts
Protocol: After the heart was excised, it was cannulated, quickly mounted on a Langendorff perfusion set-up, and perfused at 37° C. with a solution containing (in mmol/L) 128 NaCl, 4.7 KCl, 1.45 CaCl2), 0.6 MgCl2, 27 NaHCO3, 0.4 NaH2PO4, and 11 glucose (pH maintained at 7.4 by equilibration with a mixture of 95% 02 and 5% CO2). The left atrium (ventricle) was stimulated at a basic cycle length of 200 ms, and twice the diastolic stimulus current threshold. […] The effective refractory period was defined as the longest S1-S2 interval failing to produce atrial (ventricular) activation.

[6] = biological target: T1, NK-3 receptor; settings: cited from earlier work; remark: listed apart in the source
[7] = biological target: T2, Murine NK3 receptor; settings: read-out: Binding (Inhibition of [125I]-[MePhe7]neurokinin B) Murine NK3 receptor, Ki; HEK 293-murine NK3 receptor cells; mean ± SEM; cited from earlier work
[8] = biological target: NK-1 receptor (Homo sapiens, UniProt P25103); settings: cited from earlier work
Sequence of NK-1 receptor (P25103 whole entry, species assumed): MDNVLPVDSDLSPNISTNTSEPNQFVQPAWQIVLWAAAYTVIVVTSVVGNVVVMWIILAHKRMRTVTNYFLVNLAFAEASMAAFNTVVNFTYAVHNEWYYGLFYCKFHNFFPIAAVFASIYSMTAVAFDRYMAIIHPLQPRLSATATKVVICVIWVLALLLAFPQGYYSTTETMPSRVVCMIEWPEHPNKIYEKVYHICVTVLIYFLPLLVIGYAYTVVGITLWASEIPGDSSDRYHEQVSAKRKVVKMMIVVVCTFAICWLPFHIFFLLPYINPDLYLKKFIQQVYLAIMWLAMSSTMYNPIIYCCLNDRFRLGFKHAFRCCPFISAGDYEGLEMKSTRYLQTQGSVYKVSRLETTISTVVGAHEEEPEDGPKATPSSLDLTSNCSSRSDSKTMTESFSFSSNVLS

[9] = biological target: T3, NK2-receptor (Homo sapiens, UniProt P21452); settings: cited from earlier work
T3 sequence (P21452 1-398): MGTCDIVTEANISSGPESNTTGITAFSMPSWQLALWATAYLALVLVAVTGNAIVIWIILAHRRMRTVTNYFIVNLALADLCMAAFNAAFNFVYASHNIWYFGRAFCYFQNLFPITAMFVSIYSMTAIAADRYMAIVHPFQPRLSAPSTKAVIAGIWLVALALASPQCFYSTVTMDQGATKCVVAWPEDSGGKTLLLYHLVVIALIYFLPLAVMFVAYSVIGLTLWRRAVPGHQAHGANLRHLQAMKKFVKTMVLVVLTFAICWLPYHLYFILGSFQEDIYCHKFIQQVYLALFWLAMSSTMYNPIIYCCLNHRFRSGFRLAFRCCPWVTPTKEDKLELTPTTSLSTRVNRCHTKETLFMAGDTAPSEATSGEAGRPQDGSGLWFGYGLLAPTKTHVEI

[10] = tested on: rabbit atrial myocytes; test: Action potential recording (perforated patch clamp) in rabbit atrial myocytes; settings: increasing concentrations, result in words
Protocol: (§1) Male New Zealand White specified pathogen free rabbits (2.5-3.5 kg) were anaesthetized with a combination of 20 mg xylazine and 100 mg ketamine (intramuscularly) and heparinized with a bolus of 1000 IU heparin (intravenously). Subsequently, the animals were killed by 200 mg pentobarbital intravenously, after which the heart was quickly excised and mounted on a langendorff perfusion apparatus. […] Single atrial cells were isolated from the left atrium using the same protocol with a modification consisting of complementing the enzymatic solution with 6.6 pg/mL protease.
(§2) Small aliquots of single cell suspension were introduced into a recording chamber on the stage of an inverted microscope. Cells were allowed to adhere for 5 minutes after which superfusion was started. Single quiescent rod-shaped myocytes with clear cross-striations and smooth surfaces were selected for measurements.
(§3) Voltage control, data acquisition, and analysis were performed using custom-made software.
(§4) Potentials were corrected for liquid junction potential [3]. Signals were low-pass filtered (cut-off frequency: 5 kHz) and digitized at 40 kHz. Cell membrane capacitance (Cm) was estimated by dividing the decay time constant of the capacitive transient in response to 5 mV hyperpolarizing voltage clamp steps from a holding potential of −40 mV, by the series resistance.
(§5) APs were measured with the amphotericin-B-perforated patch clamp technique using normal Tyrode's solution containing (in mM): NaCl 140, KCl 5.4, CaCl2 1.8, MgCl2 1.0, glucose 5.5, HEPES 5.0, pH 7.4 (NaOH). The patch-pipettes (borosilicate glass; 1-3 MΩ) were filled with a ‘standard’ solution containing (in mM): K-gluconate 110, KCl 30, NaCl 5, MgCl2 1, amphotericin-B 0.22, HEPES 10, pH 7.3 (KOH).
(§6) APs were elicited at 2 Hz by 2-ms (1.5×diastolic stimulation threshold) current pulses applied through the patch pipette. […] Values obtained from 10 consecutive APs were averaged.
(§7) The NK-agonists were applied in a cumulative sequence with 5 minutes intervals between increments in concentration. Effects were assessed after equilibration, but not earlier than 3 minutes after application.

[11] = tested on: rabbit ventricular myocytes; test: Action potential recording (perforated patch clamp) in rabbit ventricular myocytes; settings: 2 Hz, 1-10 μM substance P or 100 nM Senktide
Protocol: as §1, §2, §3, §4, §5, §6, §7

Asp-Met-His-Asp-Phe-Phe-(Me)Phe-Gly-Leu-Met-NH2 (DMHDFFFGLM; HELM PEPTIDE1{D.M.H.D.F.F.[meF].G.L.M.[am]}$$$$V2.0; N-terminus assumed; SMILES CSCC[C@H](NC(=O)[C@H](CC(C)C)NC(=O)CNC(=O)[C@H](Cc1ccccc1)N(C)C(=O)[C@H](Cc1ccccc1)NC(=O)[C@H](Cc1ccccc1)NC(=O)[C@H](CC(=O)O)NC(=O)[C@H](Cc1c[nH]cn1)NC(=O)[C@H](CCSC)NC(=O)[C@@H](N)CC(=O)O)C(N)=O; listed as Homo sapiens) [[MePhe^7]neurokinin B]
NK-3 receptor Affinity (pEC50) [1]: 8.9 pEC50 | EC50 [2]: 0.3 ± 0.1 nM | EC50 [3]: 0.26 ± 0.13 nM | Ki [4]: 1.8 ± 1 nM | Longest S1-S2 interval that fails to produce atrial activation (A-ERP) ([5]; 20 nM (N-Me-Phe7)-NKB, basic cycle length 200 ms, control 75 ms): 105 ms | Effect on atrial effective refractory period, in words ([5]; Langendorff-perfused rabbit heart): prolongs the atrial effective refractory period | Prolongation of the S1-S2 interval measured in the left atrium ([5]; Langendorff-perfused rabbit heart, difference to control): 30 ms | NK-3 receptor Affinity (pK1) [6]: 8.7-9.6 pK1 | Ki [7]: 0.6 ± 0.1 nM

Neurokinin A: compound having CAS registry No. 86933-74-6
NK-3 receptor Affinity (pEC50) [1]: 7.4 pEC50 | EC50 [2]: 22 ± 4 nM | EC50 [3]: 0.82 ± 0.24 nM | Ki [4]: 3300 ± 240 nM | NK-3 receptor Affinity (pK1) [6]: 5.5-6.3 pK1 | Ki [7]: 785 ± 195 nM

RSRTRQFYGLM [Hemokinin-1]
NK-1 receptor Affinity (pK1) [8]: 9.8-11.7 pK1 | NK2-receptor Affinity (pK1) [9]: 6.3 pK1 | NK-3 receptor Affinity (pK1) [6]: 8.6-9.3 pK1

Neurokinin B: natural NK3-receptor agonist, CAS registry No. 86933-75-7
EC50 [3]: 0.09 ± 0.02 nM | NK2-receptor Affinity (pK1) [9]: 5.0-7.7 pK1 | Ki [7]: 2.3 ± 0.3 nM

Substance P: agonist of multiple neurokinin receptors, CAS registry No. 33507-63-0
Effect on atrial action potential (AP) duration [10]: significantly prolongs the AP duration | EC50 [3]: 5.4 ± 2.4 nM | Effect on ventricular action potential (AP) duration [11]: does not prolong the AP | Effect on ventricular action potential (AP) duration ([11]; listed as substance P): absence of effect | Ki [7]: 4920 ± 2250 nM

[Sar9, Met (O2)11]-Substance P
Effect on atrial action potential (AP) duration [10]: absence of effect; also recorded: does not affect AP duration

CSCC[C@H](NC(=O)[C@H](CC(C)C)NC(=O)CNC(=O)[C@@H](NC(=O)[C@H](Cc1ccccc1)NC(=O)[C@H](CCC(N)=O)NC(=O)[C@H](CC(=O)O)NC(=O)[C@H](CO)NC(=O)[C@H](CCCCN)NC(=O)[C@@H]1CCCN1C(=O)[C@@H](NC(=O)[C@@H](N)CC(=O)O)C(C)C)C(C)C)C(N)=O [Kassinin] (H-DVPKSDQFVGLM-NH2)
NK-1 receptor Affinity (pIC50) [8]: 6.6-7.1 pIC50 | NK-3 receptor Affinity (pIC50) [6]: 6.7-7.0 pIC50

CC[C@H](C)[C@H](NC(=O)[C@H](Cc1ccccc1)NC(=O)[C@H](C)NC(=O)[C@H](CC(=O)O)NC(=O)[C@H](CCCCN)NC(=O)[C@H](CO)NC(=O)[C@@H]1CCCN1C(=O)[C@@H]1CCC(=O)N1)C(=O)NCC(=O)N[C@@H](CC(C)C)C(=O)N[C@@H](CCSC)C(N)=O [Eledoisin] (HELM PEPTIDE1{[Glp].P.S.K.D.A.F.I.G.L.M.[am]}$$$$V2.0)
NK-1 receptor Affinity (pIC50) [8]: 8.6 pIC50 | NK-3 receptor Affinity (pIC50) [6]: 6.2-6.6 pIC50

Source: patent US10456439B2, “NK3 agonist for use in the treatment of a patient suffering from atrial arrhythmia or fibrillation” (priority 2014, dated 2019)
